T1: RRM1 subunit of ribonucleotide reductase (human (endogenous in RKO), UniProt P23921 1-792)
T1 sequence (looked up): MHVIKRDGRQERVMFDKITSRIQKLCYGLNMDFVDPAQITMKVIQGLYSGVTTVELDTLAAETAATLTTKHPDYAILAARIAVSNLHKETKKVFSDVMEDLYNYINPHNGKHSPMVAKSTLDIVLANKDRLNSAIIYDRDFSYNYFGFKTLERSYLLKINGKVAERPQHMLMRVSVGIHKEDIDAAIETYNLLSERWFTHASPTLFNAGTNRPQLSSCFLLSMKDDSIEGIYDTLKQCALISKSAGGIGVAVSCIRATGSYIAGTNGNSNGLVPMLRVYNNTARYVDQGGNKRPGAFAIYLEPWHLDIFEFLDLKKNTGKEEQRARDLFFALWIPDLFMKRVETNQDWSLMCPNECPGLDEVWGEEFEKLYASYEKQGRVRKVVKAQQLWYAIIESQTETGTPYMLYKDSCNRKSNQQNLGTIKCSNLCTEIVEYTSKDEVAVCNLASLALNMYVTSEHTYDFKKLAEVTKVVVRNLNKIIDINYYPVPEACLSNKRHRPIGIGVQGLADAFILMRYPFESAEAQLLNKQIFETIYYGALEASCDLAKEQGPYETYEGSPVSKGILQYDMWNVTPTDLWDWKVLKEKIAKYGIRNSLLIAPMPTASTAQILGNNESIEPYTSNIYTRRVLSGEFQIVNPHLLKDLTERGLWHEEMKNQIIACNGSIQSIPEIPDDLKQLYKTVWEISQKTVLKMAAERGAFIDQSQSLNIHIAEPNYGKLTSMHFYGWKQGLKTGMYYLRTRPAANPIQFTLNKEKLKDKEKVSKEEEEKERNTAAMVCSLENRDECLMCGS


Target: T1, RRM1 subunit of ribonucleotide reductase
Test: co-IP

Binder | fold decrease of RRM2 bound to RRM1 in <0.1% O2 against normoxia [fold] | fold increase of RRM2B bound to RRM1 in <0.1% O2 against normoxia [fold]
RRM2 subunit of ribonucleotide reductase (natural protein, human (endogenous in RKO), UniProt P31350 1-389, looked up) MLSLRVPLAPITDPQQLQLSPLKGLSLVDKENTPPALSGTRVLASKTARRIFQEPTEPKTKAAAPGVEDEPLLRENPRRFVIFPIEYHDIWQMYKKAEASFWTAEEVDLSKDIQHWESLKPEERYFISHVLAFFAASDGIVNENLVERFSQEVQITEARCFYGFQIAMENIHSEMYSLLIDTYIKDPKEREFLFNAIETMPCVKKKADWALRWIGDKEATYGERVVAFAAVEGIFFSGSFASIFWLKKRGLMPGLTFSNELISRDEGLHCDFACLMFKHLVHKPSEERVREIIINAVRIEQEFLTEALPVKLIGMNCTLMKQYIEFVADRLMLELGFSKVFRVENPFDFMENISLEGKTNFFEKRVGEYQRMGVMSSPTENSFTLDADF | 1.8 | 
RRM2B subunit of ribonucleotide reductase (natural protein, human (endogenous in RKO), UniProt Q7LG56 1-351, looked up) MGDPERPEAAGLDQDERSSSDTNESEIKSNEEPLLRKSSRRFVIFPIQYPDIWKMYKQAQASFWTAEEVDLSKDLPHWNKLKADEKYFISHILAFFAASDGIVNENLVERFSQEVQVPEARCFYGFQILIENVHSEMYSLLIDTYIRDPKKREFLFNAIETMPYVKKKADWALRWIADRKSTFGERVVAFAAVEGVFFSGSFAAIFWLKKRGLMPGLTFSNELISRDEGLHCDFACLMFQYLVNKPSEERVREIIVDAVKIEQEFLTEALPVGLIGMNCILMKQYIEFVADRLLVELGFSKVFQAENPFDFMENISLEGKTNFFEKRVSEYQRFAVMAETTDNVFTLDADF |  | 5.3

— publication PMC5405111 (Molecular Cell, 2017)
